In paper PMC9329571, “Regulation of TIA-1 Condensates: Zn2+ and RGG Motifs Promote Nucleic Acid Driven LLPS and Inhibit Irreversible Aggregation” one finds Kd data, which are given here for one molecule.

Data set [1] has as its target FUS-RBD (RGG1-RRM-RGG2-ZnF-RGG3) (UniProt P35637 242-526). Nature of the data set: fluorescence anisotropy; 12 mM arginine; FA: 10 mM HEPES pH 7.2, 50 mM NaCl, 12 mM arginine (further 1 mM component truncated in the text); temperature not stated; KD from two independent measurements. The conditions noted are these: protein: recombinant; tags: N-terminal GB1-6xHis; label: 5'-fluorescein; single strand.

The target in the next data set is T1, TIA-1 RRM2,3 (UniProt P31483-2 93-274).
T1 sequence: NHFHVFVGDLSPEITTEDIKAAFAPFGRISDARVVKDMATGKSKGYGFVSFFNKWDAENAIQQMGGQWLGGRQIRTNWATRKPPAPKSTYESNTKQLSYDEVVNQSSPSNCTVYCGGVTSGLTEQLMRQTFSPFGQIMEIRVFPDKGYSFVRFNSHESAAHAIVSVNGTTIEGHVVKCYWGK
Described as above. The conditions noted are these: protein: recombinant; tags: 6xHis removed with thrombin; label: 5'-fluorescein; single strand.

The term Kd denotes the constant that tells how readily two partners part at equilibrium.

FUS-RBD (RGG1-RRM-RGG2-ZnF-RGG3), sequence (P35637 242-526): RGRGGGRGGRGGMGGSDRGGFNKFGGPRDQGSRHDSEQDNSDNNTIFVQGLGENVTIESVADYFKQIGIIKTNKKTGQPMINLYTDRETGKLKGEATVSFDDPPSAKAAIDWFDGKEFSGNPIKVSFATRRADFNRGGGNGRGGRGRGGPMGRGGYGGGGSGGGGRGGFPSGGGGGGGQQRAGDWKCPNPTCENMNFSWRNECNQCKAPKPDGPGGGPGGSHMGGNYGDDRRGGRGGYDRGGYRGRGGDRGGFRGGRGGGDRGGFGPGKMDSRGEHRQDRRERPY

Consider TTTTTACTCC (ssDNA) [TC1], for which the Kd in data set [1] is 30 nM; with TIA-1 RRM2,3, 2 nM.
